Test results reported in the DeepSol protein solubility set.

Experiment: soluble on expression in E. coli; label from the status in PepcDB or PDB records

| Sequence | soluble on expression in E. coli |
| --- | --- |
| MLPKPGTYYLPWEVSAGQVPDGSTLRTFGRLCLYDMIQSRVTLMAQHGSDQHQVLVCTKLVEPFHAQVGSLYIVLGELQHQQDRGSVVKARVLTCVEGMNLPLLEQAIREQRLYKQERGGSQ | soluble |
| MPWIAKRRGHDADFFIMRIPRIYHPELLTSGTQISLCEDAANHIGRVLRMGPGQALQLFDGSNQVFDAEIISASKKSVEVQVMKGEIDDRESPLHIHLGQVMSRGEKMEFTIQKSIELGVSLITPLFSERCGVKLDSERLNKKRQQWQKIAIAACEQCGRNRVPEIRPPMALEAWCAEQDSGLKLNLHPRAHASINTLPLPVERVRLLIGPEGGLSADEIAMTARYQFTDILLGPRVLRTETTALTAITALQVRFGDLG | not soluble |
| MGSDKIHHHHHHMKKVAIVILNWNGRKLMEEFLPSVVSNSPEWAEVIVADNGSTDDSIEMLKAKFPTVGIISFNQNYGFAEGYNQALKRLDHEYCVLLNSDVEVTPNWLDAPIATLDSDPSIACVQPKIRAQRNKEYFEYAGAAGGYIDKYGYPFCRGRILHIVEKDEGQYDTPAYILWATGACLFVRTATYKEVGGLDAGFFAHQEEVDMCWRLRSRGYRLVCVPQSIVYHVGGATLNAESPRKTFLNFRNSLLMLYKNSREADLKHVMRIRFWLDYIAAAKFLMEGHIQNAKAVYEARKAYHQLKPEYAPKRKENLEKSTLSTIPELMRDSLILAFYLKGKRTFKAIKDRR | not soluble |
| GPGSSAHAPEGKRATKTELGSTSLYVRVGQLTNLRRHPDADRLYVEDMVLGDETRTIVSGLVESYAIEELEGTQCLVVCNMKPKSLMGVTSQGMVLCAKRDTEVKLIRPPAGAKPGDRILFGASYDAAIAAAAPPEPISSNKMSEVLSHLHTNADSVLCWKDEPARHPSGAAVAIADMANCPVS | soluble |
| MAHHHHHHMELCLYNSKNGYLEALLRGFRSSFLTPEEYKKLTEVDTLEDLKSVLEDTDYGSFMMDEPSPIAVTTIAQKCKEKMAHEFNYIRAQAEEPLRTFLDYIAKEKMIDNVIILIHGTLNKKPAEELLSRVDPLGYFPQMKAITTMDVQNSHDDVLKVLLIETPIGTYFDKYISANASNEKNNVTTILNEMDIEILRNTLKKAWLEDFYDFIRELGGKTEEVMGHILKSVADFRVLSVTLNTINSSLSLELQKDRNDMFPCFGYLYPEGTDRIRKCWNNETVQAALENYPTYYNLYEECKQFYMKNENMQDSKIVDHKVKSLEDLLYVKLVKLCETAFDQHCHFGIFYAWVKLKEQEIRNIVWISDMILMNRKDCIDSIIPIFEPQI | not soluble |
| MNKGRIIQVMGPVVDIQFESGQLPDIYNAITIERPQGGTLTVEAAVHLGDNVVRCVAMASTDGLVRGLEAVDTGAPISVPVGKATLGRVFNVLGEPIDEQGEVNAEERHPIHRPAPEFEELSTADEILETGIKVIDLLAPYAKGGKIGLFGGAGVGKTVLIQELINNVAQEHGGLSVFAGVGERTREGNDLYHEMKDSGVISKTSMVFGQMNEPPGARLRVALTGLTMAEYFRDREGQDVLLFIDNIFRFTQAGSEVSALLGRMPSAVGYQPTLATEMGQLQERITSTKKGSITSIQAIYVPADDYTDPAPATTFAHLDATTNLERKLAEMGIYPAVDPLASTSRILSPAVVGEEHYRVARGVQQVLQRYNDLQDIIAILGMDELSDEDKLIVARARKIQRFLSQPFHVAEQFTGMPGKYVPVKETVRGFKEILEGKHDNLPEEAFYMVGTIDEAVEKAKKL | soluble |
| MGSDKIHHHHHHMKMSINQIGRSNKVQIEKTEVEISTPDGKMPAFFYQPCERGQKPAVILLMEAFGLTSHIQDVATRIAKEGYVVLTPDLYYRELTNNKFGYEEVEQAMAMMYRLDFGKPIEEDIRAAIAYLKSQSNVFSEKIGVTGFCLGGGLSFLSACKFSDEIAAVASFYGMVLDDWIEAVTNISVPIYLFYGGIDSFIPPERVQQIETRFQELSKEYTLKVYPDADHGFFCHERSSYNRLAAEDSWNELTQFFHRHLQ | not soluble |
| MGSDKIHHHHHHMTLVASSCTDVLDQMPTTEDTSKEVYADAANYKKVLAKIYASYVLAGQGQGGDNGDLKSINKQDFSRGYFNLQEAATDEVANTWLSGNNLSDLTYISWDAKDSWVSDSYYWLFFNIALCNEFLRHCSDEEIARFSEAEQTEIRTFRSEARFMRSFSYWMVLDLYRQGPKVDENTPVIGYIPEAYDGIGMFDFIESELKELVAEGVSSALPATNEYGRASKPVAWALLARLYLNSAIYRGNVDTKYYTECITACKQVISNPAFYLEPEYAKLFNADNHKRTHEILFAMVCDATTSVTWGGGTYIICGSCGNSSTQDPAKYGLSNGWGMFRARGEMTAKFGDIATTKDSRAMFYTDGQAQFFTGAIDNQAEGYFFEKFSNLTDEGVAASNSAATGCSTDYPLLRLADIYLMAAEAQLRGGTGLSRAEALELVNQVRLRAYNQDESGKISDSDFTLDFILDERARELYLESVRRTDLIRFNKFVSADYIWQWKGGVLDGRAVNKKYNIYPIPDTDLTANPNLHNPLY | not soluble |
| MSLTGKPIVLGLTISTTAAAGVADHADHMNGSLLAQEEINANGGILGRPLELRPVDVDLLSAESCQASIRKLVDLKVHAISSPFLFVPIPAMDASANYKCPYVNGNTQRAATDMVAKHPEKYNHIFQMDPSEVFYGETFPVFLESLADSGNWKPKNNKVHIVQEQIAYCQTISRACQEALKKSRFELAKVTDIQYPVQDWGSVIRDIKKTGAGTVMMDHWVAAEYAAFCKQFRANPLKGTLIYLQYGPSQPEFLELTGKAAEGFVWSTMLGVYADKKGQAFRDKYQKRFPGKTMGLCYTGGGYDIAYMMAQAWNAVGNPDDFKAVNDYIRKTAFRGVCGWSYMNNPRQEARHFPLGTDSIESGMSQLYFQIQDGKNKIIYPPQLKEGHHHHHH | soluble |
| EFGQNRATLLASIDVALEHAELFAADDDQMGLFLDESFSIKPKYVETEELPLVDLLAFEKETLGIYFSNHPLSAFRKQLTAQGAVSILQAQRAV | not soluble |
| SASRGKTETSKLKQNLEEQLDRLMQQLQDLEECREELDTDEYEETKKETLEQLSEFNDSLKKIMSGNMTLVDELSGMQLAIQAAISQAFKTPEVIRLFAKKQPGQLRTRLAEMDRDLMVGKLERDLYTQQKVEILTALRKLGEKLTADDEAFLSANAGAILSQFEKVSTDLGSGDKILALASFEVEKTKK | soluble |
| GSHMTYPKYLLSPETIEALRKPTFDVWLWEPNEMLSCLEHMYHDLGLVRDFSINPVTLRRWLFCVHDNYRNNPFHNFRHCFCVAQMMYSMVWLCSLQEKFSQTDILILMTAAICHDLDHPGYNNTYQINARTELAVRYNDISPLENHHCAVAFQILAEPECNIFSNIPPDGFKQIRQGMITLILATDMARHAEIMDSFKEKMENFDYSNEEHMTLLKMILIKCCDISNEVRPMEVAEPWVDCLLEEYFMQSDREKSEGLPVAPFMDRDKVTKATAQIGFIKFVLIPMFETVTKLFPMVEEIMLQPLWESRDRYEELKRIDDAMKELQKK | soluble |
| MGSDKIHHHHHHMSTRQLLRNHYVQVDRSKKPYCFLLAKEPEYNDILNNYRIPLGEYQFKRTLFAREWLYKDVWHEMVSFAFCREPLSRCISAFFYLWEAEAQRRAWLPSFNGALNAHGYGLDYSFDQFLDAVVACRDSGSNFSPMGLHFSTHTATMWDDVTDSGGSILLSNIFRLEDLIHGINHVFSVCGVPDKAKPLLRDINTNETKRPFTPSRHHIAKVEDLYGKDFELYETYGRLF | not soluble |
| MSLMPRIKPLLVLCAALLTVTPAASADVNSDMNQFFNKLGFASNTTQPGVWQGQAAGYAYGGSLYARTQVKNVQLISMTLPDINAGCGGIDAYLGSFSFINGEQLQRFVKQIMSNAAGYFFDLALQTTVPEIKTAKDFLQKMASDINSMNLSSCQAAQGIIGGLFPRTQVSQQKVCQDIAGESNIFADWAASRQGCTVGGKSDSVRDKASDKDKERVTKNINIMWNALSKNRMFDGNKELKEFVMTLTGSLVFGPNGEITPLSARTTDRSIIRAMMEGGTAKIYHCNDSDKCLKVVADTPVTISRDNALKSQITKLLASIQNKAVSDTPLDDKEKGFISSTTIPVFKYLVDPQMLGVSNSMIYQLTDYIGYDILLQYIQELIQQARAMVATGNYDEAVIEHINDNMNDATRQIAAFQSQVQVQQDALLVVDRQMSYMRQQLSARMLSRYQNNYHFGGSTLEGHHHHHH | not soluble |
| MIAAEAFAPHAALAQDLIPHAADTGDGSHDLAHIHRVFRNAMRIHAGEGGDGNVLAASVLLHDCVAVEKNSPLRAQASRLAAEKASGILAGLGWQKQDIDAAAHAITTHSFSANIEPQTLEAKILQDADRLDAIGMVGAARCFYIAGRMGSALYDPADPLAKERPLDDRAFAIDHFETKLFKLADGFRTETGRQMAKARHERLKQVLDLFLDEILEHHHHHH | soluble |
| MGSDKIHHHHHHMKIAVVGGTFWDIFIFGENPHSSTIRESPGGSGLNVAYGLFLLGHTVDFYSNIGDDWRGKQIVELLEKASFDTSHMSTIQGGKTGIFIAHNDKPLAVDPGVNRKEMKLPSLSEYDLVFVTGEIPEKTIRKICENTKNVILDVGPGARFDTSDLNALVIGNERECSFRKCDVVKMGSKGARWGEVYVPGNGISYPHSIGLGDLFDIVFVHHLPLGKSKKEILEEAVKCSQILGQKENVTPFERISFLEPLSTKDDTLECPDESKDASHHGG | not soluble |
| MALICELDEQWSYVGSKARLHWLWYAYNTKTGGVLAYTFGPRTDQTCRELLALLTPFNIGMLTSDDWDSYGRVVPKNKHLTGKIFTQRIERNNLTLRTHIKRLARKQSASHAQLRSTKK | not soluble |
| MGSDKIHHHHHHMLAFAARTVVKPLGLLKPSSLMKVSGRFKAHQDALPRLPVPPLQQSLDYYLKALQPIVSEEEWAHTKQLVDEFQTSGGVGERLQKGLERRAKKMENWLSEWWLKTAYLQFRQPVVIYSSPGVILPKQDFVDLQGQLRFAAKLIEGVLDFKSMIDNETLPVEFLGGQPLCMNQYYQILSSCRVPGPKQDSVVNFLKSKRPPTHITVVHNYQFFELDVYHSDGTPLTSDQIFVQLEKIWNSSLQSNKEPVGILTSNHRNTWAKAYNNLIKDKVNRESVNSIQKSIFTVCLDKQVPRVSDDVYRNHVAGQMLHGGGSKFNSGNRWFDKTLQFIVAEDGSCGMVYEHAAAEGPPIVALVDHVMEYTKKPELVRSPMVPLPMPKKLRFNITPEIKNDIEKAKQNLSIMIQDLDIMMLTFHHFGKDFPKSEKLSPDAFIQVALQLAYYRIYGQACATYESASLRMFHLGRTDTIRSASIDSLAFVKGMGDSTVPEQQKVELLRKAVQAHRAYTDRAIRGEAFDRHLLGLKLQAIEDLVSMPDIFMDTSYAIAMHFNLSTSQVPAKTDCVMFFGPVVPDGYGICYNPMEAHINFSVSAYNSCAETNAARMAHYLEKALLDMRTLLQNHPRAKL | not soluble |
| LPSSPPAEEAIIDWPVALRQSANKEDLAKEMLGMLVDYLREVETVVNTALEDEEYPASDLLHHIHKLHGSCSYSGVPRLRKICASLEQALRNGASIDELEPELFELQDEMAKVLEASRDYLN | not soluble |
| MSLQVEKISIIGLGLIGGSLAKALKEKLGIESITAVDINEKSLSQALKEGFIKEGFTELNESVYNSDIIFICTPVKDAVEYITRLHGKVKAGCILTDTASTKGEIIDYVNSLDNPPCFIGGHPMAGTEKAGFSSSFSHLFENAYYIMSPSKNCPEESLEYLAEIIRGIGAIPIKLDSKEHDIITATISHVPHVIASALVNLVKFSDSPDGKMQTLAAGGFKDITRIASSNPKMWENIILSNKEIVKSTLNKFTETINTFIEYIDNENSNGIYNFFDSAKKFRDSIPNNRKGLIEPQNELIVDVVDKPGIIGEIATILGNNGINIKNINVSNSREFEQGCLRITLPDSGSVAEAYELLAKKGYKVFKIEGHHHHHH | soluble |
